Laboratory results: patent US20240158497A1 (published 2024)

T1: human GP130 extracellular domain expressed with a C-terminal mouse IgG2a Fc tag (hGP130-mFc) (human)
T1 construct: also called dimeric human GP130
T1 chain: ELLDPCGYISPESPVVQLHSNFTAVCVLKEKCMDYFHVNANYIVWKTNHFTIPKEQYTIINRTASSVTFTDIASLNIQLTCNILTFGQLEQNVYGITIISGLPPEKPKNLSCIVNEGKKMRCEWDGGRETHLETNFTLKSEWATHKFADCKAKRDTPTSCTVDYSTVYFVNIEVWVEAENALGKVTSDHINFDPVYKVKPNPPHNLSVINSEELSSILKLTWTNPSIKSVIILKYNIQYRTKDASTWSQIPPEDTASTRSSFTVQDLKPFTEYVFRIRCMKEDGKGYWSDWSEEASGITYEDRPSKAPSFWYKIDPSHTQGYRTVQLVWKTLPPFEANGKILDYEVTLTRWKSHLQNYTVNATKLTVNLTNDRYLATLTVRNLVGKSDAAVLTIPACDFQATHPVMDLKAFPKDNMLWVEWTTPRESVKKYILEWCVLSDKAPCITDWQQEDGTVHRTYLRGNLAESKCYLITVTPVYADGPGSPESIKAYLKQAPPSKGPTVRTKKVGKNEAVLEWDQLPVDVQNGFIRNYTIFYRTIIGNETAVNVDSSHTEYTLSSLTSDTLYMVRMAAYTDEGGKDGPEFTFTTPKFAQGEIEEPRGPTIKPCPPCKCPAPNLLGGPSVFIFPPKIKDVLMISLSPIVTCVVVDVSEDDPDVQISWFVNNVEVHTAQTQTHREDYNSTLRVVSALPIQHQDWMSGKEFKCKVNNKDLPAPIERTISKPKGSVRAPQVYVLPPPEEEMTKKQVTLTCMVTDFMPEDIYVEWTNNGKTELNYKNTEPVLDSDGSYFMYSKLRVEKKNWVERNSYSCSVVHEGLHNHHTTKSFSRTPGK

B1: MAb16618 (antibody, V domains shown)
VH: QVQLQESGPGLVKPSETLSLTCTVSGGSISNYYWTWIRQPPGKGLEWIGHISNSGTTNYNPSLKSRVTISVDTSKNQFSLKLTSVTAADTAVYYCARLPLGIAAVDTDYYYYFGMDVWGQGTTVTVSS
VL: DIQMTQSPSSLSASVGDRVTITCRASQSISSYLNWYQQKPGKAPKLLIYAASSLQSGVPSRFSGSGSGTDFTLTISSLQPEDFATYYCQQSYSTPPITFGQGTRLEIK
B2: MAb16683 (antibody, V domains shown)
VH: QVQLVESGGGLVKPGGSLRLSCAASGFTFSDYYMTWIRQTPGKGLDWVSYISSSGTNKYNADSVKGRFTISRDNAKNSLYLQMNSLRAEDTAVYYCVRDPPWGMDVWGQGTTVTVSS
VL: not shown
B3: MAb16623 (antibody, V domains shown)
VH: EVQLVESGGGLVQPGGSLRLSCAASGLTFSSYEMNWVRQAPGKGLEWVSHISSAGSTKYYADSVKGRFTISRDNAKNSLFLQMNSLRAEDTAIYYCAGYNYAYYYFGVDVWGQGTTVTVSS
VL: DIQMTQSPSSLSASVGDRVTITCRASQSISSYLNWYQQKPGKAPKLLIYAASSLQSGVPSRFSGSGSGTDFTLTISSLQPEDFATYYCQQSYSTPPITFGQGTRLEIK
B4: MAb16669 (antibody, V domains shown)
VH: EVQLVESGGGLVQPGGSLRLSCAASGFTFSSYAMNWVRQAPGKGLEWVSAISGSGDSTYYTDSVKGRFTISRDNSKNTLYLQMNTLRAEDTAVYYCAKEEIVMLVGATPGWFDPWGQGTLVTVSS
VL: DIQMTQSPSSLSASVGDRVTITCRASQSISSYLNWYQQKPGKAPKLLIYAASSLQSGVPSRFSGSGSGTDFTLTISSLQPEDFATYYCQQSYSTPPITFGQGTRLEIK
B5: MAb16614 (antibody, V domains shown)
VH: QVQLVESGGGVVQPGGSLRLSCAASGFTFSTYDIHWVRQAPGKGLEWVAVISFDGSNRNYGDSVKGRFTISRDNSDNTLFLEMNNLRFEDTAVYYCAKEGYGVDFQHWGQGTLVTVSS
VL: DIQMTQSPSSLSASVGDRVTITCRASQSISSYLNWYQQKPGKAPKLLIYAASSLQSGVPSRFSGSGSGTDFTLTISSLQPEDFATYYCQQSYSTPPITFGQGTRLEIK
B6: MAb16683 (antibody, V domains shown)
VH: B2 VH
VL: not shown
notes: captured through anti-human Fc
B7: MAb16673 (antibody, V domains shown)
VH: EVQLVQSGAEVKKPGESLKISCKGSGYSFTSYWIDWVRQMPGKGLEWMGIIYPDDSDTRYSPSFQGQVTMSVDKSISTAYLQWSSLKASDTAIYYCARHERGIVEAGTDYYYYYGMDVWGQGTTVTVSS
VL: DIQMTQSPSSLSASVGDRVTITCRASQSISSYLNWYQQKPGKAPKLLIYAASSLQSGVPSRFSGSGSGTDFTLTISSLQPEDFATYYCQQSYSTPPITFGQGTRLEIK
notes: as for B6
B8: MAb16676 (antibody, V domains shown)
VH: QVQLVQSGAEVMKPGASVKVSCRASGYTFSSYDINWVRQAPGQGLEWMGWISTATGNTNYPQKVQGRVTMTTDTSTNTAYMELRSLRSDDTAVYYCTREGNSKGWLDPWGQGTLVTVSS
VL: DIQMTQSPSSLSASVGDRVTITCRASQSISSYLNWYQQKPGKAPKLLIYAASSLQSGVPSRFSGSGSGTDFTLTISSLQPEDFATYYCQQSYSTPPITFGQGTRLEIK
notes: as for B6
B9: MAb16682 (antibody, V domains shown)
VH: EVQLVESGGGLVQPGGSLRLSCAASGFTFSTYWMNWVRQAPGKGLEWVANIKEDGSEKYYVDSVKGRFTISRDNAKNSLYLQMNSLRAEDTAVYYCAREGFGVVTYIWGQGTMVTVSS
VL: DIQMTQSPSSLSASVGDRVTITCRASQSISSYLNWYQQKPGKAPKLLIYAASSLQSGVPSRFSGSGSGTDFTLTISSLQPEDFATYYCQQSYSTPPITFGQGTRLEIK
notes: as for B6
B10: MAb16680 (antibody, V domains shown)
VH: QVQLQQSGPGQMKSSQTLTLTCAISGDSVSSNSAIWYWIRQSPSRGLEWLGRTKFRSKWYNDFALSMKSRITINPDTSKNQFSLHLNSVTPEDTAVYYCARYKWELYFDYWGQGTLVTVSS
VL: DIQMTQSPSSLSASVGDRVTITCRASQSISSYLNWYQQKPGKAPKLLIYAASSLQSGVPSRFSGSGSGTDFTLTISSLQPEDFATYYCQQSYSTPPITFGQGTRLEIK

Target: T2, human GP130 extracellular domain expressed with a C-terminal myc-myc-hexahistidine tag (human, UniProt P40189 23-619)
T2 construct: monomeric; also called hGP130-mmH; hGP130-MMH
Assay: SPR 25C, mAb captured, hGP130-MMH injected
Method: (§1) Equilibrium dissociation constant (KD) for different GP130 reagents binding to purified anti-GP130 monoclonal antibodies were determined using a real-time surface plasmon resonance based Biacore 4000 biosensor. All binding studies were performed in 10 mM HEPES, 150 mM NaCl, 3 mM EDTA, and 0.05% v/v Surfactant Tween-20, pH 7.4 (HBS-ET) running buffer at 25° C. and 37° C. The Biacore sensor surface was first derivatized by amine coupling with a monoclonal mouse anti-human Fc antibody (GE, #BR-1008-39) to capture anti-GP130 monoclonal antibodies. […] Reagents tagged with “mmH” are monomeric, whereas reagents tagged with “mFc” are dimeric. Thus, for example, “hGP130-mmH” is also referred to as “monomeric human GP130,” and “hGP130-mFc” is also referred to as “dimeric human GP130.”
(§2) The association rate (k a) and dissociation rate (kd) were determined by fitting the real-time binding sensorgrams to a 1:1 binding model with mass transport limitation using Scrubber 2.0c curve-fitting software. Binding dissociation equilibrium constant (KD) and dissociative half-life (t ½) were calculated from the kinetic rates as: […]

| 100 nM Ag Bound (RU) | Kd [nM] | koff [s⁻¹] | kon [M⁻¹ s⁻¹] | t½ [min] | Binder |
| --- | --- | --- | --- | --- | --- |
| 52 | 120 | 0.0425 | 354000 | 0.3 | B1 |
| 54 | 46.7 | 0.00325 | 69700 | 4 | B2 |
| 77 | 21 | 0.00377 | 180000 | 3 | B3 |
| 17 | 35.4 | 0.000403 | 11400 | 29 | B4 |
| 18 | 183 | 0.0101 | 55200 | 1.1 | B5 |

Target: T3, mouse GP130 extracellular domain expressed with a C-terminal myc-myc-hexahistidine tag (mGP130-mmH) (mouse, UniProt Q00560 23-617)
T3 construct: Monomeric; the entry includes the myc-myc-His tag
T3 sequence (Q00560 other isoform, or with tags, fused parts or gaps): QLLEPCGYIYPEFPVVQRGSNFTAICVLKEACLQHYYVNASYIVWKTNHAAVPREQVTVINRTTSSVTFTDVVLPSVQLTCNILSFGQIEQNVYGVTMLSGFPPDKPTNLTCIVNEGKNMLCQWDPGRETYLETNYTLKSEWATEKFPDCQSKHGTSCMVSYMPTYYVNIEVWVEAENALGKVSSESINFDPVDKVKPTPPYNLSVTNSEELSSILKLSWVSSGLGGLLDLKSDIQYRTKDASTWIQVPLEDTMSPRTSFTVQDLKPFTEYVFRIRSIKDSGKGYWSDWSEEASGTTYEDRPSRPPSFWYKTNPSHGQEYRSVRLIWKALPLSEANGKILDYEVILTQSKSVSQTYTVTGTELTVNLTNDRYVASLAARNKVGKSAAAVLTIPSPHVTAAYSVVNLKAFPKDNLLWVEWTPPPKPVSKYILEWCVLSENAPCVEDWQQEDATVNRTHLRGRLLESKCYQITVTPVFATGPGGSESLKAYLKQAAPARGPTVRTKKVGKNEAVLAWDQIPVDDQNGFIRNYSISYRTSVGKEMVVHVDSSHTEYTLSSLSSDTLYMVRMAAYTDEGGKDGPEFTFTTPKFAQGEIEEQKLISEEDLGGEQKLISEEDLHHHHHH
Assay: SPR Biacore, mAb captured via anti-hFc, 37 C
Method: as §1, §2

| 100 nM Ag Bound (RU) | binding result | Binder |
| --- | --- | --- |
| 0 | no binding (tested: 100 nM) | B6 |
| 1 | no binding (tested: 100 nM) | B7 |
| 0 | no binding (tested: 100 nM) | B8 |
| 0 | no binding (tested: 100 nM) | B9 |

Target: T4, rat GP130 extracellular domain expressed with a C-terminal myc-myc-hexahistidine tag (rGP130-mmH) (rat, UniProt P40190 23-618)
T4 construct: Monomeric; the entry includes the myc-myc-His tag
T4 sequence (P40190 other isoform, or with tags, fused parts or gaps): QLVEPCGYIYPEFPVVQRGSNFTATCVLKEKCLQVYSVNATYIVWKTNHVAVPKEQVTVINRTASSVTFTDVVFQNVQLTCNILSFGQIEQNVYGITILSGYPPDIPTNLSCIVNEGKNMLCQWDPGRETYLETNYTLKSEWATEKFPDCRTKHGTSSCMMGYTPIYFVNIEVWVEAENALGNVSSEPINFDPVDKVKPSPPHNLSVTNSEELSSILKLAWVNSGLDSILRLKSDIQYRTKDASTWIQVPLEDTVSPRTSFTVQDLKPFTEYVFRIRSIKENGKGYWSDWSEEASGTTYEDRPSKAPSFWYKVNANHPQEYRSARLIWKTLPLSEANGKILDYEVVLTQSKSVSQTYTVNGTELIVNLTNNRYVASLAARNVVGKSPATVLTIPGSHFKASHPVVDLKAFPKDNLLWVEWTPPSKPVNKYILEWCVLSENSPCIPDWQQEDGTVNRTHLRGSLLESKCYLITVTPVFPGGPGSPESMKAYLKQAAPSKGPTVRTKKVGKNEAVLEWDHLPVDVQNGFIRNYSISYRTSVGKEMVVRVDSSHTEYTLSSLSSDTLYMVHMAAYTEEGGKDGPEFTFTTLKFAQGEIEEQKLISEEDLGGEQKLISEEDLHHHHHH
Assay: SPR Biacore, mAb captured via anti-hFc, 37 C
Method: as §1, §2

| 100 nM Ag Bound (RU) | Binder |
| --- | --- |
| 0 | B6 |
| 2 | B7 |
| 0 | B8 |
| 1 | B9 |

Target: T1, human GP130 extracellular domain …
Assay: SPR Biacore, mAb captured via anti-hFc, 37 C
Method: as §1, §2

| 100 nM Ag Bound (RU) | Kd [nM] | koff [s⁻¹] | kon [M⁻¹ s⁻¹] | t½ [min] | Binder |
| --- | --- | --- | --- | --- | --- |
| 111 | 5.8 | 0.00114 | 196000 | 10 | B6 |
| 199 | 0.457 | 0.000313 | 684000 | 37 | B7 |
| 140 | 0.0566 | 9.45e-05 | 1.67e+06 | 122 | B8 |
| 130 | 8.33 | 0.00196 | 236000 | 6 | B9 |

Target: T5, human GP130 delta D1-D3 expressed with a C-terminal myc-myc hexahistidine tag (human, UniProt P40189 329-619)
T5 construct: CHO supernatant, captured on anti-myc microspheres; also called human GP130 delta D1-D3-MMH
T5 sequence (P40189 other isoform, or with tags, fused parts or gaps mutant limits assumed): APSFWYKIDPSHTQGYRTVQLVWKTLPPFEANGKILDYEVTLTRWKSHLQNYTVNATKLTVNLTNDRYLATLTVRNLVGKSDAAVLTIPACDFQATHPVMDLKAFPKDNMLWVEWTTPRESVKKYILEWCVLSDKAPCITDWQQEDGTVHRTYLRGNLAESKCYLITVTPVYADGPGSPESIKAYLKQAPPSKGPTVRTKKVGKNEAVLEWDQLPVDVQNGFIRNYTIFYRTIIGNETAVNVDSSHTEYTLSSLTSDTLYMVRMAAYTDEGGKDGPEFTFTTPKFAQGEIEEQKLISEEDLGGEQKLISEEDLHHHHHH
Assay: Luminex, myc-captured antigen
Method: Aliquots of microspheres with immobilized anti-myc monoclonal antibodies, prepared as described above, were added individually to 1 mL of the each of these protein supernatants and to 500 uL of purified GP130 protein. The microspheres were gently mixed, incubated for two hours at 25° C., washed twice with 1 mL of DBPS, centrifuged to remove the supernatant and finally resuspended in 1 mL of DPBS buffer. Forty eight μL of anti-myc IgG coupled microspheres from individual reactions with full length human GP130 and with each of the human GP130 domain proteins were withdrawn and mixed together in 3.6 mL of PBS+20 mg/mL BSA+0.05% sodium azide (blocking buffer).
From this mixed pool, 75 μL of microspheres were plated per well on a 96 well filter plate (Millipore, Cat. No: MSBVN1250) and mixed with 25 μL of individual anti-human GP130 monoclonal antibodies (0.5 or 5 μg/mL), incubated for two hours at 25° C. and then washed twice with 200 μL of DPBS with 0.05% Tween 20 (washing buffer). To detect and quantify the amounts of bound anti-GP130 antibody levels to individual microspheres, either 100 μL of 2.5 μg/mL R-Phycoerythrin conjugated goat F(ab′)2 anti-human kappa (Southern Biotech, Cat #2063-09) in blocking buffer, was added and incubated for 30 minutes at 25° C. After 30 minutes, the samples were washed twice with 200 μL of washing buffer and resuspended in 150 μL of wash buffer. The Median Fluorescence intensity (MFI) of the microspheres was measured in a Luminex Analyzer.

| binding result | Binder |
| --- | --- |
| no binding (tested: 0.5 or 5 µg/mL) | B1 |
| no binding (tested: 0.5 or 5 µg/mL) | B5 |

Target: T6, mouse GP130 extracellular domain expressed with a C-terminal myc-myc-hexahistidine tag (mouse, UniProt Q00560 23-617)
T6 construct: monomeric; also called mGP130-mmH; mGP130-MMH
T6 sequence (Q00560 other isoform, or with tags, fused parts or gaps): as the sequence (Q00560 other isoform, or with tags, fused parts or gaps) above
Assay: SPR
Method: as §1, §2

| binding result | Binder |
| --- | --- |
| no binding (tested: 100 nM) | B1 |
| no binding (tested: 100 nM) | B2 |
| no binding (tested: 100 nM) | B3 |
| no binding (tested: 100 nM) | B4 |
| no binding (tested: 100 nM) | B5 |
| no binding (tested: 100 nM) | B10 |

Target: T3, mouse GP130 extracellular domain …
Assay: SPR Biacore, mAb captured via anti-hFc, 25 C
Method: as §1, §2

| 100 nM Ag Bound (RU) | Binder |
| --- | --- |
| 0 | B6 |
| 0 | B7 |
| 0 | B8 |
| 1 | B9 |

Target: T4, rat GP130 extracellular domain …
Assay: SPR Biacore, mAb captured via anti-hFc, 25 C
Method: as §1, §2

| 100 nM Ag Bound (RU) | binding result | Binder |
| --- | --- | --- |
| 0 | no binding (tested: 100 nM) | B6 |
| 0 | no binding (tested: 100 nM) | B7 |
| 0 | no binding (tested: 100 nM) | B8 |
| 0 | no binding (tested: 100 nM) | B9 |

Target: T1, human GP130 extracellular domain …
Assay: SPR Biacore, mAb captured via anti-hFc, 25 C
Method: as §1, §2

| 100 nM Ag Bound (RU) | Kd [nM] | koff [s⁻¹] | kon [M⁻¹ s⁻¹] | t½ [min] | Binder |
| --- | --- | --- | --- | --- | --- |
| 107 | 1.86 | 0.000311 | 167000 | 37 | B6 |
| 169 | 0.173 | 9.66e-05 | 560000 | 120 | B7 |
| 119 | 0.0836 | 7.13e-05 | 853000 | 162 | B8 |
| 126 | 2.1 | 0.000361 | 172000 | 32 | B9 |
